Where a chain is given by its changes, count along the chain named.
T1: cardiotoxin 2 (CTX2) (Naja atra (Taiwan cobra), UniProt P01442 22-81)
T1 sequence: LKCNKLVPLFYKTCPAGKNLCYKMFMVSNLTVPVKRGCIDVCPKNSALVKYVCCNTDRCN

T2: cardiotoxin 4 (CTX4) (Naja atra (Taiwan cobra), UniProt P01443 22-81)
T2 sequence: T1 sequence with L1R

T3: cardiotoxin 1 (CTX1) (Naja atra (Taiwan cobra), UniProt P60304 22-81)
T3 sequence: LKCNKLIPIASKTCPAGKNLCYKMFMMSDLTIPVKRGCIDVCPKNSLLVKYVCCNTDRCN

T4: cardiotoxin 3 (CTX3) (Naja atra (Taiwan cobra), UniProt P60301 22-81)
T4 sequence: T1 sequence with S28A, N29T, L30P, T31K, N45S, A47L

T5: cardiotoxin N (CTXN) (Naja atra (Taiwan cobra), UniProt P80245 22-81)
T5 sequence: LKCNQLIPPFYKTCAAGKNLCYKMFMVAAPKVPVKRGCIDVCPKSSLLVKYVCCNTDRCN

T6: cardiotoxin-like protein (CLBP) (Naja atra (Taiwan cobra), UniProt P62375 22-83)
T6 sequence: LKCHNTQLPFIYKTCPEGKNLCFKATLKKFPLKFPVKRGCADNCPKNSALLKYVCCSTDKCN

T7: cardiotoxin 5 (CTX5) (Naja atra (Taiwan cobra), UniProt Q98961 22-81)
T7 sequence: T1 sequence with L30K, T31M

B1: FAM-bgt1 (ssDNA)
DNA: GCGAGGTGTTCGAGAGTTAGGGCGACATGACCAAACGTT
B2: FAM-bgt1-DABCYL (ssDNA)
DNA: B1 DNA
B3: FAM-bgt3 (ssDNA)
DNA: ATCATGTCTTTTCGGGATGGGCAAGAAGGGAAATAATGC
B4: FAM-bgt2 (ssDNA)
DNA: AGGGCACAGAGAAGAAGTCGTGGATTTGAATGGTTTTGGT
B5: FAM-bgt4 (ssDNA)
DNA: AGAAACGTAGCGGTAACTGCTAGAATGCGCCGAGAGAGCG

Columns and labels:
cardiotoxin 2 (CTX2) = biological target: T1, cardiotoxin 2 (CTX2); test: fluorescence quenching titration; 10 mM Tris-HCl pH 7.5, 1 mM EDTA, 100 mM NaCl; temperature not stated; fluorescence with 4 nM aptamer (ex 480/em 520 nm); EMSA with 5 uM aptamer, 20 min, 2% agarose, TAE; conditions: protein: native; tags: none; label: 5'-FAM
cardiotoxin 4 (CTX4) = biological target: T2, cardiotoxin 4 (CTX4); test: as above; conditions: protein: native; tags: none; label: 5'-FAM
cardiotoxin 1 (CTX1) = biological target: T3, cardiotoxin 1 (CTX1); test: as above; conditions: protein: native; tags: none; label: 5'-FAM
cardiotoxin 3 (CTX3) = biological target: T4, cardiotoxin 3 (CTX3); test: as above; conditions: protein: native, tags: none, label: 5'-FAM
cardiotoxin N (CTXN) = biological target: T5, cardiotoxin N (CTXN); test: fluorescence quenching titration; 10 mM Tris-HCl pH 7.5, 1 mM EDTA, 100 mM NaCl; temperature not stated; […]; conditions: protein: native; tags: none; label: 5'-FAM
[1] = biological target: T6, cardiotoxin-like protein (CLBP); test: as above; conditions: protein: native; tags: none; label: 5'-FAM
[2] = biological target: alpha-bungarotoxin (α-Bgt) (Bungarus multicinctus (Taiwan banded …, UniProt P60615 22-95)); test: as above; conditions: protein: native; tags: none; label: 5'-FAM
Chain of alpha-bungarotoxin (α-Bgt) (Bungarus multicinctus (P60615 22-95): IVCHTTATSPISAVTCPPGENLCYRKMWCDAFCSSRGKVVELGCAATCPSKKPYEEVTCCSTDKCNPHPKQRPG

cardiotoxin 5 (CTX5) = biological target: T7, cardiotoxin 5 (CTX5); test: as above; conditions: protein: native; tags: none; label: 5'-FAM

Binder | Kd (cardiotoxin 3 (CTX3)) | Kd [2] | also measured
B1 | 2250 nM | 2210 nM | Kd (cardiotoxin 2 (CTX2)): 6290 nM; Kd (cardiotoxin 4 (CTX4)): 8130 nM; Kd (cardiotoxin 1 (CTX1)): 2510 nM; Kd (cardiotoxin N (CTXN)): 8850 nM; Kd [1]: 7190 nM; Kd (cardiotoxin 5 (CTX5)): 17200 nM
B2 | – | – | Kd (cardiotoxin 3 (CTX3); 3'-DABCYL): 2350 nM
B3 | 1260 nM | 140 nM | –
B4 | 260 nM | 460 nM | –
B5 | 1170 nM | 280 nM | –

Source: paper PMC4810211, “DNA Aptamers against Taiwan Banded Krait α-Bungarotoxin Recognize Taiwan Cobra Cardiotoxins”
